Data published in patent US20190315837A1.

Molecular target: His-tagged human Her2/Neu protein (Her2-His) (human) (UniProt P04626)
Assay: Octet (BLI), Her2-His on penta-His biosensor, antibody in solution

- Kd: < 1 pM
- koff: < 1e-07 s⁻¹
- kon: 1.04e+06 M⁻¹ s⁻¹
Substance: human IgG1 control (antibody)
